# Measured values as given in patent publication US9328143B2, “Peptide derivatives and use thereof as carriers for molecules in the form of conjugates” (VECT-HORUS, priority 2008, dated 2016).
# Where no end group is shown, it is not given here. [ ]: non-standard residue; d: D form. Rhodamine = not defined here
# Tests used:
# [1] = In situ brain perfusion in mouse, transport across the BBB; assay type: in vivo
# Experimental: The in situ brain perfusion technique (in adult male OF1 mouse) is used here to select the best vectors and to provide proof of their mechanism of action for their passage in the brain across the BBB.
# Radioactive peptides with high specific radioactivity (SRA, up to 100 Ci/mmol) are prepared by a strategy of acylation of the N-term amine function by tritiated propionic (or propanoic) anhydride or tritiated N-propionyl-succinimide (NPS).
# The tritiation reaction of peptide vectors SEQ ID NO: 11 and SEQ ID NO: 48 in the N-term position by propionylation is carried out in DMF (1 mg peptide in 100 μl to 450 μl according to solubility) by adding 0.1 equivalent of tritiated NPS for 5 min at room temperature, then 0.9 equivalent of cold NPS (non-tritiated) for 1 h, and then a new equivalent of cold NPS for 5 h. The reaction medium is then left at 4° C. overnight and purified the following day by HPLC. The SRA for each tritiated peptide is between 5 Ci/mmol and 10 Ci/mmol (theoretically on the order of 7.7 Ci/mmol). The total quantity of radioactivity prepared by synthesis is between 600 μCi and 950 μCi.
# The techniques briefly summarised below were developed to study the distribution in the brain of active substances and, in particular, the role of the BBB and, more particularly, of LDLR in the penetration of these molecules in the brain. In situ brain perfusion techniques are among the most technically demanding and the most difficult to perform in the mouse. However, in situ brain perfusion (like in vitro models) enables total control of the composition of the artificial perfusate in order to maintain the cells and vascularisation of the brain under normal physiological and anatomical conditions within the animal, without the disrupting factor of systemic distribution.
# (§1) This strategy of in situ brain perfusion normally carried out in the rat was adapted for mouse (Dagenais et al., 2000, J Cereb Blood Flow Metab., 20(2), 381-6) in order to broaden its application for evaluating the parameters of transport kinetics at the BBB and the blood-retinal barrier, in transgenic and KO mutant mice for the receptors, enzymes or transporters of active substances. It involves catheterisation of a carotid artery in anaesthetised OF 1 mice and ligature of some branches of this carotid artery (external, thyroidal, occipital) in order to specifically perfuse the internal carotid and pterygopalatine arteries, which are used to evaluate the uptake in the brain of the vectors and conjugates. The catheter makes it possible to replace general circulation by infusion with a well-controlled perfusate (bicarbonate buffer, plasma or blood) by passing by the carotid. Oxygenated Krebs bicarbonate buffer is first used to evaluate the capacities of the vectors and conjugates to gain access to the brain. After catheterisation of the carotid, endogenous blood flow is stopped by sectioning the ventricles of the heart in order to avoid the mixture of buffer with blood and elevation in blood pressure. The duration of the fixed flow-rate perfusion is monitored. The buffer perfusion can be extended up to 20 min, or up to 1 h in the presence of oxygen transporters (washed erythrocytes) for studies of receptor-mediated transport (RMT).
# The study of peptide vector SEQ ID NO: 11 made it possible to determine its brain transport or transfer coefficient (Kin). The duration of brain perfusion for these experiments is 5 min with a perfusate flow rate of 2 ml/min. Thus, the calculation of the Kin (volume of distribution over time of brain perfusion) of peptide vector SEQ ID NO: 11 gives a value of 3.5±0.2×10^−4 ml/s/g.
# [2] = In situ perfusion in mouse, transport across the blood-retinal barrier; assay type: in vivo
# Text: as §1
# In addition, the Kin of these various peptides, across the blood-retinal barrier (BRB), were also determined. Kin of SEQ ID NO: 11=1.2±0.2×10^−4 ml/s/g Kin of SEQ ID NO: 48=2.4±0.3×10^−4 ml/s/g Kin of SEQ ID NO: 73=0.0±0.0×10^−4 ml/s/g Kin of SEQ ID NO: 72=11.5±3.3×10^−4 ml/s/g Kin of SEQ ID NO: 74=1.8±0.2×10^−4 ml/s/g
# hLDLR [3] = biological target: T1, hLDLR (Homo sapiens, UniProt P01130); assay: Binding and endocytosis of tracer-conjugated synthesised peptides in CHO-hLDLR-GFP cells (fluorescence, immunocytochemistry); assay type: cell-based; set-up: expressed in transfected cells; settings: CHO-LDLR-GFP cells, tracer-conjugated peptide, vs control peptides
# T1 sequence (P01130 22-860): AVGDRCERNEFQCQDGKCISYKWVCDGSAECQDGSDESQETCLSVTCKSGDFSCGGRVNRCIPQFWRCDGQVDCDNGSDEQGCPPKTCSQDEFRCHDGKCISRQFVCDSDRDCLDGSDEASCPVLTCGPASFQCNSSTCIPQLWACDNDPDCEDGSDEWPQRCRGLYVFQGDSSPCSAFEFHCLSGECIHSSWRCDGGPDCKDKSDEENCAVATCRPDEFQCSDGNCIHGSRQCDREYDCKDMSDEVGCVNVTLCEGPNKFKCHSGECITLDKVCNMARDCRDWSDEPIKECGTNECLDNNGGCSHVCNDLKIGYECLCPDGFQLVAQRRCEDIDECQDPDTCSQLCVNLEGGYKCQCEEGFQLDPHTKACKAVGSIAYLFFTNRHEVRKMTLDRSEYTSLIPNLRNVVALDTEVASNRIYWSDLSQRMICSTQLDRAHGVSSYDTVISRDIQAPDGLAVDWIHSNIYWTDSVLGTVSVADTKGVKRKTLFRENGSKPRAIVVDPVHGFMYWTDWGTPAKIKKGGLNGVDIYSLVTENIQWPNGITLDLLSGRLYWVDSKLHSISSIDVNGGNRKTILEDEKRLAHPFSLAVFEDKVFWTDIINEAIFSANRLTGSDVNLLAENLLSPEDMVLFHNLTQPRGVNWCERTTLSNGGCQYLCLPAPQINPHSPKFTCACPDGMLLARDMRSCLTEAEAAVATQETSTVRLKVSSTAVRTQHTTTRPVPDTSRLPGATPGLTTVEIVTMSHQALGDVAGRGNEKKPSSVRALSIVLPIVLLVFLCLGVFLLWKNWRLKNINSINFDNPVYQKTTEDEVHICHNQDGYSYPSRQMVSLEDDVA
# Text: GFP fluorescence is visible in green (A1, B1 and C1); that related to peptides, visualised by rhodamine or by binding of an anti-S-Tag antibody coupled to Alexa594 is visible in red (A2, B2 and C2); and the superimposing of red and green stains is visible in yellow/orange (A3, B3 and C3). […] S-Tag (a 15 amino acid peptide derived from sequence 1-15 of bovine pancreatic ribonuclease A) on the one hand can be recognised by an anti-S-Tag antibody for immunocytochemistry or FACS approaches, and on the other hand can reconstitute enzymatic activity by binding with ribonuclease S-protein (C-term portion, amino acids 21-124) in tests of activity in vitro using the FRETWorks S-Tag assay kit (Novagen 70724-3). The ribonuclease thus activated digests an RNA substrate releasing a masked fluorescent agent visualised by FRET (fluorescence resonance energy transfer) and quantified in a 96-well plate in a Beckmann spectrofluorimeter. For these FRET experiments, control CHO cells and GFP fused in the C-term position with hLDLR and mLDLR, which generates strong background noise at the wavelengths used for FRET, was replaced by red fluorescent protein (RFP). The stable cell lines generated for the FRET experiments are thus CHO-RFP and CHO-hLDLR-RFP. Experiments involving the incubation of peptides on various cells expressing hLDLR were performed.
# [4] = tested on: bovine brain microvascular endothelial cells (BBMEC); assay: Binding and/or internalisation in endothelial cells of in vitro BBB model; assay type: cell-based; settings: rhodamine fluorescence after cell lysis, 2 h, 5 h, 24 h
# Experimental: The medium is changed twice per week. […] This BBMEC medium is changed three times per week.
# This analysis was carried out by lysis of endothelial cells at various times (2 h, 5 h, 24 h), and by fluorimetric measurements of the quantity of fluorescence (rhodamine) associated with the cells (membrane and cytoplasmic compartments obtained by centrifugation of these cells after lysis).
# [5] = tested on: bovine brain microvascular endothelial cells (BBMEC); assay: Passage (Pe) across in vitro BBB model
# Experimental: The potential toxic effects of peptides on endothelial cells, the binding/accumulation of peptides in these cells, and the passage by transcytosis of peptides were evaluated on in vitro BBB models. The cells necessary to set up the model (co-culture of endothelial cells from brain microvessels and astrocytes) are bovine cells (bovine brain microvascular endothelial cells, BBMEC) sold by Cellial Technologies (Lens, France).
# The in vitro BBB model brings into play a co-culture of BBMECs and astrocytes. […]
# The culture medium of the lower chamber is collected at various times and fluorescence quantified by fluorimetric analysis. The results are expressed as endothelial surface permeability (Pe) in units of 10^−3 cm/min. […] Transendothelial electrical resistance (TEER), measured with an ohmmeter and expressed in ohm·cm^2, also makes it possible to measure BBB integrity in vitro during tests of passage across the BBB. […]
# This analysis is carried out by measuring by fluorimetry the quantity of fluorescence accumulated in the receiver wells at various times (1 h, 4 h, 24 h). The integrity of the BBB in the various wells analysed was evaluated by simultaneous measurement of the level of LY that passes from one compartment to the other as a function of time.
# hLDLR [6] = biological target: T1, hLDLR; assay: FACS: binding of bacterial viruses expressing peptides to HUVEC; set-up: endogenous in cells; host or cells: HUVEC (human umbilical vein endothelial cells), not genetically modified
# Experimental: Evaluation by FACS of the interaction between HUVEC and two clones of bacterial viruses expressing peptides, one cyclic (SEQ ID NO: 11), the other linear (SEQ ID NO: 21), with affinity for hLDLR, compared with control bacterial viruses not expressing peptides with affinity for this receptor.
# Qualitative immunocytochemistry was supplemented with quantitative flow cytometry (FACS) with suspended cells (GFP cell line, CHO-hLDLR-GFP cell line, human fibroblasts, HUVEC). These cells were grown in culture medium, mechanically unbound and dissociated (without trypsin), centrifuged, resuspended and incubated in the presence of various bacterial virus clones and anti-LDLR antibody, for 20 min at 4° C. in order to avoid any process of endocytosis. After washings, the bacterial viruses bound to cells were visualised with anti-viral envelope protein antibody. FACS analyses were carried out with a FACSCanto system (Becton Dickinson) using BD FACSDiva software. The number of positive cells was standardised with 5,000 events for each test. The results were expressed in arbitrary units of fluorescence.
# FIGS. 9, 10, 11 correspond to the results obtained for peptides SEQ ID NO: 11, SEQ ID NO: 12 and SEQ ID NO: 21 on cells of the CHO-hLDLR-GFP cell line (FIG. 9), human fibroblasts (FIG. 10) and HUVEC (FIG. 11).
# hLDLR [7] = biological target: T1, hLDLR; assay: FACS on HUVEC: competition between peptides expressed by bacterial viruses and natural ligand LDL; assay type: binding; set-up: endogenous in cells; host or cells: HUVEC (human umbilical vein endothelial cells), not genetically modified
# Text: Evaluation by FACS on HUVEC of competition between the peptides expressed by the bacterial viruses with affinity for LDLR and its natural ligand LDL.
# I—Graph representing the percentage of shift of the fluorescence signal in zone Q2 of graphs A-H obtained by FACS. […] Adding LDL leads to an 85% loss of signal in Q2 in […], indicating competition between the bacterial virus corresponding to peptide sequence SEQ ID NO: 21 and LDL at the site where LDL binds to hLDLR. The equally strong signal in Q2 of the bacterial viruses that express peptide SEQ ID NO: 11 (shift greater than 70% compared to control bacterial viruses) is only slightly shifted (17%) by adding LDL.
# First, it is shown that the binding rate of bacterial viruses expressing peptides with affinity for hLDLR (SEQ ID NO: 21 and SEQ ID NO: 11 are used here as examples) is proportional to the level of LDLR expression by HUVEC. FACS experiments carried out in the presence of LDL made it possible to show and quantify a strong shift (85%) of LDL by linear peptides (for example SEQ ID NO: 21), but a small shift (17%) by cyclic peptides (for example SEQ ID NO: 11).
# [8] = mouse in situ brain perfusion, BBB, 5 min, perfusate flow rate 2 ml/min, tritiated peptide
substance,measurement,setting,value
"CMPRC [SEQ ID NO: 73, control peptide for the brain perfusion study, reference compound]",Kin (brain transport or transfer coefficient),"[1]; mouse, in vivo",1.5±0.2 ×10^−4 ml/s/g
same,Kin across the blood-retinal barrier (BRB),"[2]; mouse, in vivo",0.0±0.0 ×10^−4 ml/s/g
SEQ ID NO: 1 conjugated with rhodamine: peptide SEQ ID NO: 1 conjugated in the C-term position with rhodamine via a spacer of three Gly residues (HLDCMPRGCFRNGGG-Rhodamine; cysteine pairing not given here; reading uncertain),binding to cells expressing hLDLR,hLDLR [3],bind well to CHO-LDLR-GFP cells
same,endocytosis / intracellular accumulation,hLDLR [3],incorporated by endocytosis
same,endocytosis / intracellular accumulation,hLDLR [3]; listed as SEQ ID NO: 1/rhodamine,high levels of intracellular staining
same,binding and/or internalisation rate in endothelial cells,[4],more affinity for endothelial cells in an in vitro BBB model than the control peptide
same,rate of passage (Pe) across in vitro BBB,[5]; 1 h and 4 h,cannot be distinguished from nonspecific or paracellular passage
same,rate of passage (Pe) across in vitro BBB,[5]; 24 h,quite significantly higher than that of the control peptide
TPSAHAMALQSLSVG [SEQ ID NO: 21],shift of the signal in Q2 (FACS),"hLDLR [6]; peptide expressed by bacterial virus clone, vs control bacterial viruses",significant shift
same,percentage of shift of the fluorescence signal in zone Q2,"hLDLR [6]; peptide expressed by bacterial viruses, without LDL",more than 55.8%
same,effect of LDL on binding of peptides expressed by bacterial viruses,"hLDLR [7]; FACS, LDL added",strongly decreases the binding
same,loss/shift of signal in Q2 on adding LDL,"hLDLR [7]; peptide expressed by bacterial viruses, in the presence of LDL",85%
"Y-(D)-AGFLR (Y[dA]GFLR) [SEQ ID NO: 74, analgesic therapeutic peptide, dalargin, reference compound]",Kin (brain transport or transfer coefficient),[1]; [8],0.9±0.1 ×10^−4 ml/s/g
same,Kin across the blood-retinal barrier (BRB),"[2]; mouse in situ perfusion, BRB",1.8±0.2 ×10^−4 ml/s/g
Y-(D)-AGFLRGFAL-(D)-CMPRLRGC (Y[dA]GFLRGFAL[dC]MPRLRGC; cysteine pairing not given here) [SEQ ID NO: 72],Kin (brain transport or transfer coefficient),[1]; [8],19.6±3.9 ×10^−4 ml/s/g
same,"passage in the brain, factor vs non-vectorised free dalargin (SEQ ID NO: 74)","[1]; ratio of Kin, BBB",21.78
same,Kin across the blood-retinal barrier (BRB),"[2]; mouse in situ perfusion, BRB",11.5±3.3 ×10^−4 ml/s/g
same,"BRB crossing, factor vs non-vectorised free dalargin (SEQ ID NO: 74)","[2]; ratio of Kin, BRB",6.39
